One data set deals with T1, CHO-A2 mCB2 (Mus musculus, UniProt P47936).
T1 construct: expressed in transfected cells
The experiment in a line: Immunofluorescence on methanol-fixed transfected cells. It is filed as binding. More on the design: key to immunofluorescence signal intensity: “−” no fluorescence detected; “+”-“++++” intensity of fluorescent signal; “+”-“++++” intensity of fluorescent signal; “+”-“++++” intensity of fluorescent signal; “+”-“++++” intensity of fluorescent signal. As for the experimental part: (§1) The positive clones (Table 1) were further characterized by immunofluorescence (IF; Table 2), Western Blot (Table 3, 1) and Immune precipitation (Table 4, 2) on full length hCB2, hCB1, mCB2 stable-transfected CHO-cell lines in addition to the 2 pANITA constructs.
(§2) For IF analysis, methanol-fixed cells were incubated for 20 min in a humid chamber at 37° C. with the respective hCB2 and mCB2 clones. After rinsing twice and washing for 15 min in PBS, 125 μg/ml FITC-conjugated […] anti-mouse IgG antibodies (RAM/IgG (H+L)/FITC, Nordic
(§3) Immunological Laboratories) diluted in PBS was added and incubated for 20 min in a humid chamber at 37° C. Cells were rinsed twice and washed for 15 min in PBS, mounted with mounting solution (50% PBS 50% glycerol) and covered with a coverslip. Staining was assessed by fluorescence microscopy on a Leica CTR500 fluorescence microscope and a Leica DFC300 FX digital camera.

Another data set concerns the target T2, CHODukx CRE hCB1 Cl.20 (Homo sapiens, UniProt P21554).
T2 construct: expressed in transfected cells
Described as above. It is filed as binding. More on the design: key to immunofluorescence signal intensity: “−” no fluorescence detected; “+”-“++++” intensity of fluorescent signal; “+”-“++++” intensity of fluorescent signal; “+”-“++++” intensity of fluorescent signal; “+”-“++++” intensity of fluorescent signal. As for the experimental part: as §1, §2, §3

In data set [1] the target is T3, CHODukx CRE hCB2 Cl.90 (Homo sapiens, UniProt P34972).
T3 construct: expressed in transfected cells
T3 sequence (P34972 whole entry): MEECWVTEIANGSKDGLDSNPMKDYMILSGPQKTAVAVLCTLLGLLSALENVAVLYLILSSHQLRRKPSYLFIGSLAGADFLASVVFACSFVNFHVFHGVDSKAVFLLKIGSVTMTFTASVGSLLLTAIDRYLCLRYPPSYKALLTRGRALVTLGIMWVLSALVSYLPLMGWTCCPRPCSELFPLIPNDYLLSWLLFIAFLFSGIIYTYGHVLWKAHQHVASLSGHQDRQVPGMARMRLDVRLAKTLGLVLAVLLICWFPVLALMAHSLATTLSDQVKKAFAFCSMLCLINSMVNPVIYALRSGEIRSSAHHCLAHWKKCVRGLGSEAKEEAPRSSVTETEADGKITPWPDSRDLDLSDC
The data set is described as above. The format is binding. More on the design: key to immunofluorescence signal intensity: “−” no fluorescence detected; “+”-“++++” intensity of fluorescent signal; “+”-“++++” intensity of fluorescent signal; “+”-“++++” intensity of fluorescent signal; “+”-“++++” intensity of fluorescent signal. As for the experimental part:
as §1, §2, §3

The target of the next data set is T4, pANITA3.1 hCB2 (JB175) (Homo sapiens, UniProt P34972).
T4 construct: expressed in transfected cells; host or cells: HEK293
T4 sequence (P34972 with tags, fused parts or gaps): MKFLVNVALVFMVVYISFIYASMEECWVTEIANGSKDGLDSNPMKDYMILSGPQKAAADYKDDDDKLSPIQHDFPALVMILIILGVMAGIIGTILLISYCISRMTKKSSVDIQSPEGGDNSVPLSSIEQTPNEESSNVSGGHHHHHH
The experiment in a line: Western blot of cell lysates. The format is binding. On the set-up: key to Western Blot signal intensity: “−” no signal; “+”-“+++++” signal intensity; “+”-“+++++” signal intensity; “+”-“+++++” signal intensity; “+”-“+++++” signal intensity; “+”-“+++++” signal intensity. As for the experimental part:
as §1
(§4) For Western blot analysis, cells were collected using enzyme free dissociation buffer (Cell dissociation buffer enzyme-free Hanks'-based, Gibco), and washed two times with PBS. To prepare cell lysate, 10^6 cells were lysed with 0.1 ml of lysis buffer (1% NP40, 10% glycerol, 2 mM EDTA, 137 mM NaCl, 20 mM TrisHCl, pH8, Protease Inhibitors) for 10 min on ice. The lysate was cleared by centrifugation at 20′000 g for 5 min. For SDS-PAGE cell lysate was resolved on precast 4-12% gradient gels (NuPAGE® Novex 4-12% Bis-Tris Gel, Invitrogen) with MES running buffer according to the manufacturer's directions. The separation of proteins was visualized by Colloidal Blue staining. The proteins were electrophoretically transferred to nitrocellulose membrane using a dry-blotting system (iBlot, Invitrogen). After blocking the membrane for 16 h in blocking buffer (5% Milk in PBS) at 4° C., specific proteins were detected with appropriate dilutions of mAbs in blocking buffer for 1 h at approximately 20° C. The membrane was then washed four times for 5 minutes in blocking buffer and incubated with horseradish peroxidase conjugated anti-mouse IgG mAb (GAM/IgG (g-chain)/HRP, Sigma, A9917) diluted 1:10'000 in blocking buffer at approximately 20° C. for 1 h. After washing again, blots were developed using ECL Western blotting detection reagents (ECL Western Blotting Substrate, Pierce) to visualize bands.
(§5) Expression of recombinant proteins in pANITA3.1 transfected cells was confirmed by Western blot analysis using anti-His tag antibodies. Cells expressing rat Glucose-dependent insulinotropic polypeptide receptor (GIPR), also a G-protein coupled receptor, were used as a negative control.

The next data set has as its target T5, pANITA3.1 mCB2 (JB176) (Mus musculus, UniProt P47936).
T5 construct: expressed in transfected cells; host or cells: HEK293
The experiment in a line: Western blot of cell lysates. The format is binding. More on the design: key to Western Blot signal intensity: “−” no signal; “+”-“+++++” signal intensity; “+”-“+++++” signal intensity; “+”-“+++++” signal intensity; “+”-“+++++” signal intensity; “+”-“+++++” signal intensity. As for the experimental part:
as §1, §4, §5

Data set [2] has as its target T3, CHODukx CRE hCB2 Cl.90. The experiment in a line: Immunoprecipitation from whole cell lysates. It is filed as binding. More on the design: key: “−” no signal; “+”-“++++” signal intensity; “+”-“++++” signal intensity; “+”-“++++” signal intensity; “+”-“++++” signal intensity. The settings on record: CHODukx CRE hCB2 Cl.90 lysate. As for the experimental part:
as §1
For immunoprecipitation (IP), whole cell lysates were incubated with the respective antibodies. IP was performed according to established protocols and subsequent western blot as described herein above.

The nature of data set [3]: Storage stability of antibody working dilution. The settings on record: working dilution (5 μg/sample), on ice. It is filed as physicochemical. As for the experimental part: FIG. 12: Single dose in vivo study monitoring the pharmacodynomic effect of RG7774 on CB2 expression on B-cells in Cynomolgus upon oral dosing. Three healthy cynomolgus monkeys were dosed with 100 mg/kg of the CB2 agonist RG7774. The blood draw at different time points was followed by the incubation with the anti-human CB2 antibody 1/622. The expression of CB2 on the surface of B-cells was analyzed using a lineage marker mix specific for B-cells and T-cells. The B/T-cell CB2 MFI ratio was calculated and normalized to baseline. 0 μM served as 100% baseline receptor expression. […] Due to a storage effect of the antibody working dilution (5 μg/sample) of the anti-human CB2 Ab 1/622 the 4 and 7 hours' time point have been excluded. The working dilution of this antibody is only stable for 2 hours on ice.

T5 sequence (P47936 with tags, fused parts or gaps): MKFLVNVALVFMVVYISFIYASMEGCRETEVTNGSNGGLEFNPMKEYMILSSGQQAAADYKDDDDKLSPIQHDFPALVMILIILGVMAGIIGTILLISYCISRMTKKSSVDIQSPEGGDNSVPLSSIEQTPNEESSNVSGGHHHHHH
T2 sequence (P21554 whole entry): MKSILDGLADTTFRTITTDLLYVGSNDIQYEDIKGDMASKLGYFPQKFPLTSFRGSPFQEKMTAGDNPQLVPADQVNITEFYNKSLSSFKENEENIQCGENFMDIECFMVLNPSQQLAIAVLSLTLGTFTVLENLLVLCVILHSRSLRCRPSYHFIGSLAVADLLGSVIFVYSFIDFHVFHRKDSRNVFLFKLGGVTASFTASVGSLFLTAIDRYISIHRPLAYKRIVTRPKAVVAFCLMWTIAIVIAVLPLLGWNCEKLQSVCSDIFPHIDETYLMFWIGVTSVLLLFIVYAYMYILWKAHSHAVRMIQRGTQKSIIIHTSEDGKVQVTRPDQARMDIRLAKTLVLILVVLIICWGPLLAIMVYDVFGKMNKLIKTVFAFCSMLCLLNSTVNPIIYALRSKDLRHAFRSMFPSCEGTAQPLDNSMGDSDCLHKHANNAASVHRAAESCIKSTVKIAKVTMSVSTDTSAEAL
T1 sequence (P47936 whole entry): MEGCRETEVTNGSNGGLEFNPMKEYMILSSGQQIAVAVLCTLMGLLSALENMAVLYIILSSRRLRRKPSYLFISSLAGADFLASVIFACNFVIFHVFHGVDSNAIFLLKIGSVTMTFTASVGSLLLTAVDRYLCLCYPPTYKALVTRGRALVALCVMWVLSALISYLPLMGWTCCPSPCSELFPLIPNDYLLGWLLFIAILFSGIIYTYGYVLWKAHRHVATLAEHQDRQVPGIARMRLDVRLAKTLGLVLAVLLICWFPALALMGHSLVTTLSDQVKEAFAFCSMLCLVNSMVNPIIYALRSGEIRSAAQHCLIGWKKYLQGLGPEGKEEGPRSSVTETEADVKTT

B1: hCB2-1/622: murine IgG3 monoclonal anti-human CB2 antibody, VH SEQ ID NO: 1, VL SEQ ID NO: 2, HC SEQ ID NO: 3, LC SEQ ID NO: 4 (antibody)
heavy: EVQLQQSGPELVKPGASVKISCKTSGYTFTEYTMHWVRQSHGKSLEWIGGIDRYNGDTYYNQKFKDKATLTVDRSSSTAYMELRSLTSEDSAVYFCARNGAMDYWGQGISVTVSSATTTAPSVYPLVPGCSDTSGSSVTLGCLVKGYFPEPVTVKWNYGALSSGVRTVSSVLQSGFYSLSSLVTVPSSTWPSQTVICNVAHPASKTELIKRIEPRIPKPSTPPGSSCPPGNILGGPSVFIFPPKPKDALMISLTPKVTCVVVDVSEDDPDVHVSWFVDNKEVHTAWTQPREAQYNSTFRVVSALPIQHQDWMRGKEFKCKVNNKALPAPIERTISKPKGRAQTPQVYTIPPPREQMSKKKVSLTCLVTNFFSEAISVEWERNGELEQDYKNTPPILDSDGTYFLYSKLTVDTDSWLQGEIFTCSVVHEALHNHHTQKNLSRSPGK
light: DVVMTQTPLSLPVSLGDQASISCRSSQSLVHSNGNTYLHWFLQKPGQSPKLLIYKVSIRFSGVPDRFSGSGSGTDFTLKISRVEAEDLGVYFCSQSTHVPPLTFGAGTKLELKRADAAPTVSIFPPSSEQLTSGGASVVCFLNNFYPKDINVKWKIDGSERQNGVLNSWTDQDSKDSTYSMSSTLTLTKDEYERHNSYTCEATHKTSTSPIVKSFNRNEC
With B1, the figures for the immunofluorescence signal intensity entry with CHO-A2 mCB2 (CHO-A2 mCB2 cells), in the data set with CHODukx CRE hCB1 Cl.20 (CHODukx CRE hCB1 Cl.20 cells) and with CHODukx CRE hCB2 Cl.90 [1] (CHODukx CRE hCB2 Cl.90 cells) were “−”, “−” and “+++”, respectively. Also, the entries for the “immunofluorescence staining” value with CHO-A2 mCB2 (cells expressing mouse CB2), in the data set with CHODukx CRE hCB1 Cl.20 (cells expressing human CB1) and in the data set with CHODukx CRE hCB2 Cl.90 [1] (the two cell lines expressing human CB2) were “no staining”, “no staining” and “high fluorescent signal intensities”, respectively. Also, the “Western blot detection” value with pANITA3.1 hCB2 (JB175) (hCB2) is reported as “distinct band”; with pANITA3.1 mCB2 (JB176) (mCB2), “no mCB2, hCB1 or rat GIPR was detected”. In addition, the “Western Blot signal intensity” value with pANITA3.1 hCB2 (JB175) (pANITA3.1 hCB2 (JB175) lysate) is “+++”; in the data set with pANITA3.1 mCB2 (JB176) (pANITA3.1 mCB2 (JB176) lysate), “−”. Further, the Immunoprecipitation signal intensity result with CHODukx CRE hCB2 Cl.90 [2] is reported as “+”. For the same molecule, the “stability of antibody working dilution” value in data set [3] was found to be 2 h.
